System: Escherichia coli TOP10
Assay: shrunken log2 fold change of peptide-encoding DNA abundance (4.5 h post-induction vs induction); higher = less antimicrobial activity (less host growth inhibition)
Details: time post-induction: 4.5 h; library: site-saturation at positions 5, 18, 19, 20
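Also: peptides expressed intracellularly from a pBAD plasmid library in pooled LB shake-flask culture, induced with 0.3% L-arabinose, DNA abundance read by NGS, three biological replicates, DESeq2 with apeglm shrinkage.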

Row | Sequence | shrunken log2 fold change
1 | RRIRKRPPRLPRPRPRPMWEPRP | 0.214
2 | RRIRKRPPRLPRPRPRPMWNPRP | 0.232
3 | RRIRKRPPRLPRPRPRPMYWPRP | -0.111
4 | RRIRKRPPRLPRPRPRPMYYPRP | -0.148
5 | RRIRKRPPRLPRPRPRPNAWPRP | 0.0867
6 | RRIRKRPPRLPRPRPRPNAYPRP | -0.082
7 | RRIRKRPPRLPRPRPRPNDYPRP | -0.115
8 | RRIRKRPPRLPRPRPRPNFIPRP | -0.144
9 | RRIRKRPPRLPRPRPRPNHMPRP | -0.106
10 | RRIRKRPPRLPRPRPRPNILPRP | -0.193
11 | RRIRKRPPRLPRPRPRPNIRPRP | -0.0456
12 | RRIRKRPPRLPRPRPRPNKEPRP | -0.0272
13 | RRIRKRPPRLPRPRPRPNKKPRP | -0.279
14 | RRIRKRPPRLPRPRPRPNKSPRP | 0.0234
15 | RRIRKRPPRLPRPRPRPNLEPRP | 0.185
16 | RRIRKRPPRLPRPRPRPNLHPRP | -0.184
17 | RRIRKRPPRLPRPRPRPNNIPRP | -0.477
18 | RRIRKRPPRLPRPRPRPNPLPRP | 0.0246
19 | RRIRKRPPRLPRPRPRPNRCPRP | 0.0393
20 | RRIRKRPPRLPRPRPRPNRKPRP | 0.0065
21 | RRIRKRPPRLPRPRPRPNSWPRP | 0.222
22 | RRIRKRPPRLPRPRPRPNTRPRP | -0.0607
23 | RRIRKRPPRLPRPRPRPNVGPRP | -0.0151
24 | RRIRKRPPRLPRPRPRPNVIPRP | 0.0501
25 | RRIRKRPPRLPRPRPRPNVQPRP | 0.179

Row | Sequence | shrunken log2 fold change
26 | RRIRKRPPRLPRPRPRPNWRPRP | 1.32
27 | RRIRKRPPRLPRPRPRPPAIPRP | 0.657
28 | RRIRKRPPRLPRPRPRPPANPRP | 0.48
29 | RRIRKRPPRLPRPRPRPPDQPRP | 0.802
30 | RRIRKRPPRLPRPRPRPPDWPRP | 1.48
31 | RRIRKRPPRLPRPRPRPPESPRP | 0.303
32 | RRIRKRPPRLPRPRPRPPFGPRP | 0.715
33 | RRIRKRPPRLPRPRPRPPHMPRP | 0.208
34 | RRIRKRPPRLPRPRPRPPINPRP | -0.0392
35 | RRIRKRPPRLPRPRPRPPKDPRP | 0.498
36 | RRIRKRPPRLPRPRPRPPKRPRP | 1.15
37 | RRIRKRPPRLPRPRPRPPKVPRP | 0.613
38 | RRIRKRPPRLPRPRPRPPMQPRP | 0.439
39 | RRIRKRPPRLPRPRPRPPNSPRP | 0.156
40 | RRIRKRPPRLPRPRPRPPPAPRP | 1.29
41 | RRIRKRPPRLPRPRPRPPPSPRP | 0.911
42 | RRIRKRPPRLPRPRPRPPQRPRP | 1.08
43 | RRIRKRPPRLPRPRPRPPTAPRP | 0.742
44 | RRIRKRPPRLPRPRPRPPTIPRP | 0.119
45 | RRIRKRPPRLPRPRPRPPTQPRP | 0.301
46 | RRIRKRPPRLPRPRPRPPVVPRP | 0.453
47 | RRIRKRPPRLPRPRPRPPWVPRP | 0.221
48 | RRIRKRPPRLPRPRPRPPYLPRP | 0.0134
49 | RRIRKRPPRLPRPRPRPQARPRP | -0.0213
50 | RRIRKRPPRLPRPRPRPQCWPRP | 0.00452

Row | Sequence | shrunken log2 fold change
51 | RRIRKRPPRLPRPRPRPQEAPRP | -0.000925
52 | RRIRKRPPRLPRPRPRPQEPPRP | 0.01
53 | RRIRKRPPRLPRPRPRPQFIPRP | -0.0823
54 | RRIRKRPPRLPRPRPRPQGFPRP | -0.00783
55 | RRIRKRPPRLPRPRPRPQILPRP | -0.144
56 | RRIRKRPPRLPRPRPRPQSAPRP | 0.319
57 | RRIRKRPPRLPRPRPRPQSFPRP | 0.327
58 | RRIRKRPPRLPRPRPRPQSIPRP | 0.147
59 | RRIRKRPPRLPRPRPRPQTTPRP | 0.289
60 | RRIRKRPPRLPRPRPRPQVFPRP | 0.00956
61 | RRIRKRPPRLPRPRPRPQYKPRP | -0.343
62 | RRIRKRPPRLPRPRPRPRAIPRP | 0.304
63 | RRIRKRPPRLPRPRPRPRAMPRP | -0.107
64 | RRIRKRPPRLPRPRPRPRCRPRP | 0.506
65 | RRIRKRPPRLPRPRPRPRDFPRP | 0.188
66 | RRIRKRPPRLPRPRPRPRDSPRP | 0.262
67 | RRIRKRPPRLPRPRPRPREVPRP | 0.538
68 | RRIRKRPPRLPRPRPRPRFWPRP | 1.42
69 | RRIRKRPPRLPRPRPRPRGNPRP | 0.258
70 | RRIRKRPPRLPRPRPRPRGSPRP | 0.319
71 | RRIRKRPPRLPRPRPRPRHFPRP | 0.0965
72 | RRIRKRPPRLPRPRPRPRHHPRP | 0.476
73 | RRIRKRPPRLPRPRPRPRHNPRP | -0.241
74 | RRIRKRPPRLPRPRPRPRHRPRP | 0.264
75 | RRIRKRPPRLPRPRPRPRHVPRP | 0.0906

Row | Sequence | shrunken log2 fold change
76 | RRIRKRPPRLPRPRPRPRKRPRP | 1.04
77 | RRIRKRPPRLPRPRPRPRMQPRP | 0.622
78 | RRIRKRPPRLPRPRPRPRPNPRP | 0.42
79 | RRIRKRPPRLPRPRPRPRQCPRP | -0.0759
80 | RRIRKRPPRLPRPRPRPRRDPRP | 0.491
81 | RRIRKRPPRLPRPRPRPRRFPRP | 0.39
82 | RRIRKRPPRLPRPRPRPRTMPRP | 0.179
83 | RRIRKRPPRLPRPRPRPRTQPRP | 0.605
84 | RRIRKRPPRLPRPRPRPRVQPRP | 0.386
85 | RRIRKRPPRLPRPRPRPRWFPRP | 0.295
86 | RRIRKRPPRLPRPRPRPSDAPRP | -0.0187
87 | RRIRKRPPRLPRPRPRPSDIPRP | 1.14
88 | RRIRKRPPRLPRPRPRPSEQPRP | 0.0244
89 | RRIRKRPPRLPRPRPRPSEWPRP | 0.212
90 | RRIRKRPPRLPRPRPRPSIRPRP | -0.375
91 | RRIRKRPPRLPRPRPRPSKHPRP | 0.0908
92 | RRIRKRPPRLPRPRPRPSLAPRP | 0.614
93 | RRIRKRPPRLPRPRPRPSLDPRP | 0.183
94 | RRIRKRPPRLPRPRPRPSLMPRP | 0.256
95 | RRIRKRPPRLPRPRPRPSLTPRP | -0.0632
96 | RRIRKRPPRLPRPRPRPSMDPRP | 0.0069
97 | RRIRKRPPRLPRPRPRPSNLPRP | -0.0133
98 | RRIRKRPPRLPRPRPRPSPNPRP | 1.52
99 | RRIRKRPPRLPRPRPRPSQIPRP | 0.00892
100 | RRIRKRPPRLPRPRPRPSQYPRP | -0.21

Row | Sequence | shrunken log2 fold change
101 | RRIRKRPPRLPRPRPRPSSLPRP | -0.557
102 | RRIRKRPPRLPRPRPRPSSTPRP | -0.151
103 | RRIRKRPPRLPRPRPRPSSVPRP | -0.378
104 | RRIRKRPPRLPRPRPRPSTCPRP | -0.0517
105 | RRIRKRPPRLPRPRPRPSVHPRP | -0.118
106 | RRIRKRPPRLPRPRPRPSVMPRP | 0.163
107 | RRIRKRPPRLPRPRPRPSVNPRP | -0.0205
108 | RRIRKRPPRLPRPRPRPSWLPRP | 0.303
109 | RRIRKRPPRLPRPRPRPSWVPRP | -0.0457
110 | RRIRKRPPRLPRPRPRPSYAPRP | 0.0314
111 | RRIRKRPPRLPRPRPRPSYEPRP | -0.304
112 | RRIRKRPPRLPRPRPRPTDWPRP | 0.169
113 | RRIRKRPPRLPRPRPRPTFLPRP | 0.228
114 | RRIRKRPPRLPRPRPRPTGDPRP | 0.727
115 | RRIRKRPPRLPRPRPRPTGGPRP | 0.13
116 | RRIRKRPPRLPRPRPRPTIRPRP | -0.241
117 | RRIRKRPPRLPRPRPRPTISPRP | -0.279
118 | RRIRKRPPRLPRPRPRPTKSPRP | 2.1
119 | RRIRKRPPRLPRPRPRPTKTPRP | 0.14
120 | RRIRKRPPRLPRPRPRPTLFPRP | 0.111
121 | RRIRKRPPRLPRPRPRPTLHPRP | 0.359
122 | RRIRKRPPRLPRPRPRPTLYPRP | 0.0394
123 | RRIRKRPPRLPRPRPRPTNKPRP | 0.14
124 | RRIRKRPPRLPRPRPRPTQEPRP | 0.294
125 | RRIRKRPPRLPRPRPRPTQNPRP | 1.07

Row | Sequence | shrunken log2 fold change
126 | RRIRKRPPRLPRPRPRPTRGPRP | 0.857
127 | RRIRKRPPRLPRPRPRPTRKPRP | 3.78
128 | RRIRKRPPRLPRPRPRPTRSPRP | 0.831
129 | RRIRKRPPRLPRPRPRPTSAPRP | 0.797
130 | RRIRKRPPRLPRPRPRPTSLPRP | -0.00423
131 | RRIRKRPPRLPRPRPRPTTTPRP | 0.494
132 | RRIRKRPPRLPRPRPRPTWGPRP | 0.317
133 | RRIRKRPPRLPRPRPRPTYCPRP | 0.135
134 | RRIRKRPPRLPRPRPRPTYKPRP | -0.198
135 | RRIRKRPPRLPRPRPRPTYRPRP | 0.647
136 | RRIRKRPPRLPRPRPRPVAAPRP | 0.721
137 | RRIRKRPPRLPRPRPRPVAIPRP | 0.265
138 | RRIRKRPPRLPRPRPRPVCFPRP | 0.54
139 | RRIRKRPPRLPRPRPRPVCHPRP | 0.199
140 | RRIRKRPPRLPRPRPRPVCNPRP | -0.148
141 | RRIRKRPPRLPRPRPRPVEEPRP | 0.695
142 | RRIRKRPPRLPRPRPRPVGMPRP | 0.554
143 | RRIRKRPPRLPRPRPRPVHCPRP | 0.0295
144 | RRIRKRPPRLPRPRPRPVHHPRP | -0.0438
145 | RRIRKRPPRLPRPRPRPVHMPRP | -0.0183
146 | RRIRKRPPRLPRPRPRPVISPRP | -0.00841
147 | RRIRKRPPRLPRPRPRPVKTPRP | 0.141
148 | RRIRKRPPRLPRPRPRPVLFPRP | 0.327
149 | RRIRKRPPRLPRPRPRPVMFPRP | 0.124
150 | RRIRKRPPRLPRPRPRPVPAPRP | 0.648
